Measured values published in patent publication US20250283871A1, “COMPOSITIONS AND METHODS FOR MODULATING THE INTERACTION BETWEEN SS18-SSX FUSION ONCOPROTEIN AND NUCLEOSOMES” (Dana-Farber Cancer Institute, Inc., priority 2020, published 2025).

Key:
[1] = molecular target: SNF5_HUMAN Isoform B of SWI/SNF-related matrix-associated actin-dependent regulator of chromatin subfamily B member 1 (human) (UniProt Q12824); assay: MS of BAF complexes from Aska-SS cells, shControl against shSS18-SSX, Rep 2
[2] = molecular target: BCL7C_HUMAN Isoform 2 of B-cell CLL/lymphoma 7 protein family member C (human) (UniProt Q8WUZ0); assay: as above
[3] = molecular target: SMCE1_HUMAN SWI/SNF-related matrix-associated actin-dependent regulator of chromatin subfamily E member 1 (human) (UniProt Q969G3); assay: as above
[4] = molecular target: ACL6A_HUMAN Actin-like protein 6A (human) (UniProt O96019); assay: as above
[5] = molecular target: SSXT_HUMAN Protein SSXT (human) (UniProt Q15532); assay: as above
[6] = molecular target: ARI1B_HUMAN Isoform 3 of AT-rich interactive domain-containing protein 1B (human) (UniProt Q8NFD5); assay: as above
[7] = molecular target: SMRC1_HUMAN SWI/SNF complex subunit SMARCC1 (human) (UniProt Q92922); assay: as above
BCL7B (human) = BCL7B (human) (UniProt Q9BQE9); assay: as above
[8] = molecular target: SMRD1_HUMAN SWI/SNF-related matrix-associated actin-dependent regulator of chromatin subfamily D member 1 (human) (UniProt Q96GM5); assay: as above
SSX1; SSX8 (human) = SSX1; SSX8 (human) (UniProt Q16384); assay: as above
[9] = molecular target: TNR6B_HUMAN Trinucleotide repeat-containing gene 6B protein (human) (UniProt Q9UPQ9); assay: anti-SMARCA4 (BRG1) IP, mass spectrometry, human fibroblasts
[10] = molecular target: ZC11A_HUMAN Zinc finger CCCH domain-containing protein 11A (human) (UniProt O75152); assay: as above
[11] = molecular target: ZN326_HUMAN DBIRD complex subunit ZNF326 (human) (UniProt Q5BKZ1); assay: as above
[12] = molecular target: UBC_HUMAN Polyubiquitin-C (human) (UniProt P0CG48); assay: as above
[13] = molecular target: UCRIL HUMAN Putative cytochrome b-c1 complex subunit Rieske-like protein 1 (human) (UniProt P0C7P4); assay: as above
[14] = molecular target: QCR2_HUMAN Cytochrome b-c1 complex subunit 2, mitochondrial (human) (UniProt P22695); assay: as above
[15] = molecular target: TRA2B_HUMAN Transformer-2 protein homolog beta (human) (UniProt P62995); assay: as above
[16] = molecular target: VIME_HUMAN Vimentin (human) (UniProt P08670); assay: as above
[17] = molecular target: TNR6B_HUMAN Trinucleotide repeat-containing gene 6B protein (human) (UniProt Q9UPQ9); assay: anti-SMARCA4 (BRG1) IP, mass spectrometry, HEK-293T cells
[18] = molecular target: ZC11A_HUMAN Zinc finger CCCH domain-containing protein 11A (human) (UniProt O75152); assay: as above
[19] = molecular target: YLPM1_HUMAN Isoform 4 of YLP motif-containing protein 1 (human) (UniProt P49750); assay: as above
[20] = molecular target: TSP1_HUMAN Thrombospondin-1 (human) (UniProt P07996); assay: as above
[21] = molecular target: URB2_HUMAN Unhealthy ribosome biogenesis protein 2 homolog (human) (UniProt Q14146); assay: as above
[22] = molecular target: XRN2_HUMAN 5'-3' exoribonuclease 2 (human) (UniProt Q9H0D6); assay: as above
[23] = molecular target: ZN326_HUMAN DBIRD complex subunit ZNF326 (human) (UniProt Q5BKZ1); assay: as above
[24] = molecular target: UBC_HUMAN Polyubiquitin-C (human) (UniProt P0CG48); assay: as above
[25] = molecular target: UCRIL HUMAN Putative cytochrome b-c1 complex subunit Rieske-like protein 1 (human) (UniProt P0C7P4); assay: as above
[26] = molecular target: UBP2L_HUMAN Isoform 5 of Ubiquitin-associated protein 2-like (human) (UniProt Q14157); assay: as above
[27] = molecular target: QCR2_HUMAN Cytochrome b-c1 complex subunit 2, mitochondrial (human) (UniProt P22695); assay: as above
[28] = molecular target: TRA2B_HUMAN Transformer-2 protein homolog beta (human) (UniProt P62995); assay: as above
[29] = molecular target: VIME_HUMAN Vimentin (human) (UniProt P08670); assay: as above

LFQ intensity ratio Aska (shControl)/Aska (shSS18-SSX), norm to SMARCA4 [1]: 0.0637
LFQ intensity ratio Aska (shControl)/Aska (shSS18-SSX), norm to SMARCA4 [2]: 1.54
LFQ intensity ratio Aska (shControl)/Aska (shSS18-SSX), norm to SMARCA4 [3]: 0.855
LFQ intensity ratio Aska (shControl)/Aska (shSS18-SSX), norm to SMARCA4 [4]: 1.1
LFQ intensity ratio Aska (shControl)/Aska (shSS18-SSX), norm to SMARCA4 [5]: 1.26
LFQ intensity ratio Aska (shControl)/Aska (shSS18-SSX), norm to SMARCA4 [6]: 0.65
LFQ intensity ratio Aska (shControl)/Aska (shSS18-SSX), norm to SMARCA4 [7]: 0.622
LFQ intensity ratio Aska (shControl)/Aska (shSS18-SSX), norm to SMARCA4 (BCL7B (human)): 1.13
LFQ intensity ratio Aska (shControl)/Aska (shSS18-SSX), norm to SMARCA4 [8]: 0.95
LFQ intensity ratio Aska (shControl)/Aska (shSS18-SSX), norm to SMARCA4 (SSX1; SSX8 (human)): 66.8
NSAF [9]: 6.92e-05
NSAF [10]: 0
NSAF [11]: 0
NSAF [12]: 9.25e-05
NSAF [13]: 0.000224
NSAF [14]: 0.00014
NSAF [15]: 0.00022
NSAF [16]: 0.000136
NSAF [17]: 3.4e-05
NSAF [18]: 7.68e-05
NSAF [19]: 0.000116
NSAF [20]: 0
NSAF [21]: 4.08e-05
NSAF [22]: 6.55e-05
NSAF [23]: 0.000749
NSAF [24]: 9.09e-05
NSAF [25]: 0
NSAF [26]: 5.64e-05
NSAF [27]: 0
NSAF [28]: 0
NSAF [29]: 0
Substance: SMCA4_HUMAN Transcription activator BRG1 (from UniProt P51532 1-1647) (enzyme)
